In US20230236188A1:

Molecular target: CD40 on human B cells (human) (UniProt P25942)
Test: cell-based or functional assay

Chain of UniProt P25942 (P25942 21-277): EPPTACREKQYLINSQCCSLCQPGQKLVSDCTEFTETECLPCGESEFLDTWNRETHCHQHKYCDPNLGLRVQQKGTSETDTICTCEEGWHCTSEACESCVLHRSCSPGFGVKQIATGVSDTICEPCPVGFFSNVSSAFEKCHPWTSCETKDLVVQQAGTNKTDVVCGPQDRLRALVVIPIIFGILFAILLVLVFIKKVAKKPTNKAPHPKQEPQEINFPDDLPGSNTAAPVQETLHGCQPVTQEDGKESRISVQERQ

Substance	average CD40 internalization score after 1 h stimulation (unstimulated: 0.41)	percent of B cells with NF-kB p50 nuclear translocation (unstimulated: 29%) [%]	percent of B cells with internalized CD40 (internalization score >2.5; unstimulated: 2.1%) [%]	average CD40 internalization score after co-culture with 10% hCD40L-CHO cells	average CD40 internalization score on fresh B cells co-cultured 1 h with autologous CD40L-IZ-stimulated B cells that had upregulated CD40L	percent of B cells with CD40 downregulation after 1 h co-incubation with 1% hCD40L-CHO cells [%]	percent of B cells with CD40 internalization after co-culture with 10% hCD40L-CHO cells [%]	percent of B cells with NF-kB p50 nuclear translocation after hCD40L-CHO cells (unstimulated: 29%) [%]	percent of fresh B cells with internalized CD40 after co-culture with autologous CD40L-IZ-stimulated B cells that had upregulated CD40L [%]	percent of fresh B cells with p50 nuclear translocation after co-culture with CD40L-IZ-stimulated B cells [%]	percent of total CD40lo/- B cells after 1 h co-incubation with 10% hCD40L-CHO cells [%]
human CD40L isoleucine zipper (CD40L-IZ) (from UniProt P29965 113-261) (ligand)	2.09	58	42	–	–	–	–	–	–	–	–
human CD40 ligand (CD40L), membrane form on cells (from UniProt P29965 1-261)	–	–	–	1.69	1.26	5	33	54	19.5	41	37
